Results published in publication PMC7057333 (ACS Omega, 2020).
Where two headings read alike, the source gives them in different places. Numbered stars: 1 amine (or outer) side, 2 acyl side, 3 side chain; on linkers, the order of the positions; unused ones are H or OH. Bridge positions count the residues as written; N and C are the ends. Square brackets hold non-standard residues; d marks the D form. Ends that are not written are not given here. dNle(6-ylidene) = O=C([C@@H](CCCC=[*:3])N[*:1])[*:2]; Gly(pent-4-enyl) = C=CCCC[C@H](N)C(=O)O; Lys(N3) = [N-]=[N+]=NCCCC[C@H](N)C(=O)O; hPhe = N[C@@H](CCc1ccccc1)C(=O)O; Cit = NC(=O)NCCC[C@H](N)C(=O)O; AllylGly = C=CC[C@H](N)C(=O)O; Aoc(2) = CCCCCC[C@H](N)C(=O)O; Pra = C#CC[C@H](N)C(=O)O

Legend:
[1] = molecular target: T1, LSD1_(172-833), lysine-specific demethylase 1 (human, UniProt O60341-1 172-833); test: cell-based or functional assay
[2] = molecular target: T1, LSD1_(172-833), lysine-specific …; test: cell-based or functional assay; remark: listed apart in the source
[3] = molecular target: T1, LSD1_(172-833), lysine-specific …; test: enzyme inhibition kinetics (HRP-coupled fluorescence demethylation assay); 25 nM LSD1, substrate H3K4me1_(1-21), 25 mM Tris, 50 mM NaCl, 0.1 mg/mL BSA, pH 8, 1% DMSO; Ki by global fit of competitive inhibition for 1, 11, 24, 28, 31, 33, 34, else from IC50 by Cheng-Prusoff (substrate 20 μM); conditions: both partners purified
[4] = molecular target: T1, LSD1_(172-833), lysine-specific …; test: SPR; LSD1 immobilised by amine coupling on CM5 (12 000-15 000 RU), peptides injected; TBS-T (25 mM Tris, 150 mM HCl as printed, 0.05% Tween-20, 1 mM DTT, pH 8.0), 15 °C; 1:1 Langmuir model or steady state; highest tested concentration 200 μM; conditions: both partners purified
[5] = molecular target: T2, LSD1_(172-833), lysine-specific demethylase 1 (human, UniProt O60341-1 172-833); test: as above; conditions: both partners purified; remark: listed apart in the source
[6] = molecular target: T2, LSD1_(172-833), lysine-specific …; test: cell-based or functional assay; remark: listed apart in the source
[7] = molecular target: T2, LSD1_(172-833), lysine-specific …; test: SPR; LSD1 immobilised by amine coupling on CM5 (12 000-15 000 RU), peptides injected; TBS-T (25 mM Tris, 150 mM HCl as printed, 0.05% Tween-20, 1 mM DTT, pH 8.0), 15 °C; 1:1 Langmuir model or steady state; highest tested concentration 200 μM; conditions: both partners purified; remark: listed apart in the source
[8] = molecular target: T2, LSD1_(172-833), lysine-specific …; test: enzyme inhibition kinetics (HRP-coupled fluorescence demethylation assay); 25 nM LSD1, substrate H3K4me1_(1-21), 25 mM Tris, 50 mM NaCl, 0.1 mg/mL BSA, pH 8, 1% DMSO; Ki by global fit of competitive inhibition for 1, 11, 24, 28, 31, 33, 34, else from IC50 by Cheng-Prusoff (substrate 20 μM); conditions: both partners purified; remark: listed apart in the source

## AR[Gly(pent-4-enyl)]MQ[Gly(pent-4-enyl)]ARKST-NH2 (staple 3-6) [stapled macrocycle 23 (8-carbon olefin bridge between residues 3 and 6)]
[1]
  % inhibition of LSD1 demethylase activity at 100 μM peptide: 75%

## AREMQKA[Cit]KST-NH2 (lactam 3-6) [lactam 34 (Arg8Cit-substituted analogue of peptide 28)]
[2]
  % inhibition of LSD1 demethylase activity at 100 μM peptide: 97%
[3]
  Ki: 8 µM

## ART[hPhe]QTARKST-NH2 [H3_(1-11) with L-homophenylalanine at position 4 (peptide 17)]
[4]
  Kd: > 200 µM

## ARTMQTARK [H3_(1-9) K4M (peptide 5)]
[5]
  Kd: > 200 µM

## AR[Lys(N3)]MQ[Pra]ARKST-NH2 (triazole 3-6) [triazole 35 (triazole-bridged H3_(1-11) K4M, azidolysine at 3, propargylglycine at 6)]
[2]
  % inhibition of LSD1 demethylase activity at 100 μM peptide: < 30%
[3]
  Ki: > 100 µM

## [AllylGly]R[AllylGly]MQTARKST-NH2 (staple 1-3) [stapled peptide 19 (Ala1-Thr3 cyclization, 4-carbon olefin bridge)]
[1]
  % inhibition of LSD1 demethylase activity at 100 μM peptide: 100%

## ARTMQTA [H3_(1-7) K4M (peptide 6)]
[5]
  Kd: > 200 µM

## AR[dNle(6-ylidene)]MQ[dNle(6-ylidene)]ARKST-NH2 (staple 3-6) [stapled macrocycle 26 (stereoisomer of 23, D-pentenyl glycine at 3 and 6)]
[1]
  % inhibition of LSD1 demethylase activity at 100 μM peptide: 90%

## ARTMQTARKSTGGKA [H3_(1-15) K4M (peptide 2)]
[5]
  Kd: 5 µM

## AR[AllylGly]MQ[AllylGly]ARKST-NH2 (staple 3-6) [stapled peptide 21 (Thr3-Thr6 cyclization, 4-carbon olefin bridge)]
[1]
  % inhibition of LSD1 demethylase activity at 100 μM peptide: 95%

## ARTMQTARKSTGG [H3_(1-13) K4M (peptide 3)]
[5]
  Kd: 36 µM

## A[Cit]EMQKARKST-NH2 (lactam 3-6) [lactam 33 (Arg2Cit-substituted analogue of peptide 28)]
[2]
  % inhibition of LSD1 demethylase activity at 100 μM peptide: 97%
[3]
  Ki: 4.2 µM

## AR[Pra]MQ[Lys(N3)]ARKST-NH2 (triazole 3-6) [triazole 36 (triazole-bridged H3_(1-11) K4M, propargylglycine at 3, azidolysine at 6)]
[2]
  % inhibition of LSD1 demethylase activity at 100 μM peptide: 70%
[3]
  Ki: 30 µM

## ARTKQTARKST-NH2 [H3_(1-11) K4 (peptide 9), wild-type 11-mer]
[5]
  Kd: > 100 µM

## ARTMQTARKST [H3_(1-11) K4M (peptide 4)]
[6]
  IC50 of inhibition of LSD1 demethylation of H3_(1-21) K4(Me), enzyme activity assay: > 100 µM

## PRTMQTARKST-NH2 [A1P-substituted H3_(1-11) K4M (peptide 11)]
[7]
  Kd: 10 µM
[8]
  Ki: 8 µM

## [AllylGly]R[AllylGly]MQTARKST-NH2 [peptide 18, linear precursor of 19 (allylglycine at positions 1 and 3 of H3_(1-11) K4M)]
[1]
  % inhibition of LSD1 demethylase activity at 100 μM peptide: 98%

## ART[Aoc(2)]QTARKST-NH2 [H3_(1-11) with 2-S-amino octanoic acid at position 4 (peptide 16)]
[4]
  Kd: > 200 µM

## Ac-RTMQTARKSTGGKAPRKQLA [H3_(2-21) K4M (peptide 7)]
[5]
  Kd: 45 µM

## AR[Gly(pent-4-enyl)]MQ[Gly(pent-4-enyl)]ARKST-NH2 [peptide 22, linear precursor of 23 (pentenylglycine at positions 3 and 6 of H3_(1-11) K4M)]
[1]
  % inhibition of LSD1 demethylase activity at 100 μM peptide: 100%
